Earlier results in PMC9570074.
Where two headings read alike, the source gives them in different places.

Legend:
CD30L (Homo sapiens) = CD30L (Homo sapiens) (UniProt P32971); test: SPR
TRAIL (Homo sapiens) [1] = target: TRAIL (Homo sapiens) (UniProt P50591)
TRAIL (Homo sapiens) [2] = target: TRAIL (Homo sapiens) (UniProt P50591); remark: listed apart in the source

Sequence of UniProt P50591 (P50591 whole entry): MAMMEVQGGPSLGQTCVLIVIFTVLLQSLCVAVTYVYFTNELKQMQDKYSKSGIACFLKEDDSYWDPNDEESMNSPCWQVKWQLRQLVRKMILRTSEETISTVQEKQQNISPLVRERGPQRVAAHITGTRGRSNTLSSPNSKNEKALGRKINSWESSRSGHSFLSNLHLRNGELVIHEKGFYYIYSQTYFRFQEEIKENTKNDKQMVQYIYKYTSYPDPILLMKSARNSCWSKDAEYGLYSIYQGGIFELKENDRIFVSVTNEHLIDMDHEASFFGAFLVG
Sequence of UniProt P32971 (P32971 whole entry): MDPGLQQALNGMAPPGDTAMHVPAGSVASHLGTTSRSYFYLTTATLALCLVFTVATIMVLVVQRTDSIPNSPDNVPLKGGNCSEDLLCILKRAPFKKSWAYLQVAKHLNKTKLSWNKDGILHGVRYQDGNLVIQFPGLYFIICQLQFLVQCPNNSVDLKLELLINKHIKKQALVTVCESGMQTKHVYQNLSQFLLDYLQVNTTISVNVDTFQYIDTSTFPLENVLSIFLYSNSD

CD30 (from UniProt P28908)
Kd (CD30L (Homo sapiens)): 5 nM

DcR1 (from UniProt O14798)
Kd (TRAIL (Homo sapiens) [1]): 1 nM

DcR2 (from UniProt Q9UBN6)
Kd (TRAIL (Homo sapiens) [2]): 1 nM
